Test results reported in patent US6689878B2, “Target of RNAIII activating protein (TRAP)” (The Regents of the University of California, priority 1998, dated 2004).

Test: Sensitivity of TRAP phosphorylation to acidic and basic conditions
Format: physicochemical, Staphylococcus aureus
Description: Two-component systems act through phosphorylation of the substrate domain of the sensor protein and subsequent transfer of the phosphate to an aspartate residue in the regulator protein. The initial phosphorylation is catalyzed by a protein histidine kinase domain in the sensor protein and results in an N-phosphorylated histidine residue, which is stable in alkaline conditions but not in acidic conditions (Wei et al. Methods Enymol. 200:388-414 (1991)). To test whether TRAP may be histidine-phosphorylated and therefore a candidate sensor to RAP, phosphorylated TRAP was tested for sensitivity to acidic and basic conditions. Phosphorylated TRAP was incubated at pH ranging from 3-10, for 10 min at room temperature. The mixture was then applied to SDS PAGE and the gel autoradiographed.

B1: Phosphorylated TRAP: approximately 21 kDa S. aureus protein target of RAP, SEQ ID NO:2, phosphorylated by RAP (protein)
chain: MKKLYTSYGTYGFLHQIKINNPTHQLFQFSASDTSVIFEETDGETVLKSPSIYEVIKEIGEFSEHHFYCAIFIPSTEDHAYQLEKKLISVDDNFRNFGGFKSYRLLRPAKGTTYKIYFGFADRHAYEDFKQSDAFNDHFSKDALSHYFGSSGQHSSYFERYLYPIKE
modifications: phosphorylated
Stability of TRAP phosphorylation in lower pHs (lower pHs (range tested pH 3-10), 10 min at room temperature): labile | Stability of TRAP phosphorylation at pH 8-10 (pH 8-10, 10 min at room temperature): stable
